One block for each binder: values may come before it.
Columns and labels:
[1] = target: T1, human Bcl-2 (human, UniProt P10415 1-217, limits assumed); assay: cell-based or functional assay
[2] = target: T2, human Bcl-xL (human, UniProt Q07817 1-209); assay: cell-based or functional assay
[3] = target: murine Mcl-1 (murine, UniProt P97287 1-331, limits assumed); assay: cell-based or functional assay
[4] = target: T1, human Bcl-2; assay: fluorescence anisotropy (FIG. 1)
[5] = target: T3, human Bcl-w (human, UniProt Q92843 1-164, limits assumed); assay: fluorescence anisotropy (FIG. 1)
T3 sequence (looked up): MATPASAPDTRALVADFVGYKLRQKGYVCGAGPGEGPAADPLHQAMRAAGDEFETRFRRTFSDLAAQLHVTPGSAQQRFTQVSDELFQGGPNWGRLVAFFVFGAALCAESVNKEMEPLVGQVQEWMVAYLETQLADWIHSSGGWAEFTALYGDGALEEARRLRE

[6] = target: T4, human Bfl-1 (human, UniProt Q16548 1-151, limits assumed); assay: fluorescence anisotropy (FIG. 1)
T4 construct: Also used for the Bfl-1 of Pfeiffer cells in the functional rows
T4 sequence (looked up): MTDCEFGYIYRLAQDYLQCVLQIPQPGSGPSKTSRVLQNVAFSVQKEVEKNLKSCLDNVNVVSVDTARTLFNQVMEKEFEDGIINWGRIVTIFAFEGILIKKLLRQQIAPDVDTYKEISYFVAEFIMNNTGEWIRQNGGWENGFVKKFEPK

[7] = target: T2, human Bcl-xL; assay: fluorescence anisotropy (FIG. 1)

T1 sequence (P10415 1-217 limits assumed): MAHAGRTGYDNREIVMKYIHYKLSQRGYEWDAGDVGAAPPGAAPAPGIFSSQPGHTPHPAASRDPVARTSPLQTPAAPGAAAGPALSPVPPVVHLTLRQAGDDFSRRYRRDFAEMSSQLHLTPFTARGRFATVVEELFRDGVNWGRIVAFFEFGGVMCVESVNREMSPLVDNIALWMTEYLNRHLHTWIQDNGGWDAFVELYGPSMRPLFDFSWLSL
T2 sequence (Q07817 1-209): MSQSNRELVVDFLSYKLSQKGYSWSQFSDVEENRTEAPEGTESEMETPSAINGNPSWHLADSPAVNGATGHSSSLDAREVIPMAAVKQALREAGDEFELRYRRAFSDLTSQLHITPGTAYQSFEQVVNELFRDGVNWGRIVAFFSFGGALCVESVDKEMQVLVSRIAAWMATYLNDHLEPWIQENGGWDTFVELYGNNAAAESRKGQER
murine Mcl-1, sequence (P97287 whole entry): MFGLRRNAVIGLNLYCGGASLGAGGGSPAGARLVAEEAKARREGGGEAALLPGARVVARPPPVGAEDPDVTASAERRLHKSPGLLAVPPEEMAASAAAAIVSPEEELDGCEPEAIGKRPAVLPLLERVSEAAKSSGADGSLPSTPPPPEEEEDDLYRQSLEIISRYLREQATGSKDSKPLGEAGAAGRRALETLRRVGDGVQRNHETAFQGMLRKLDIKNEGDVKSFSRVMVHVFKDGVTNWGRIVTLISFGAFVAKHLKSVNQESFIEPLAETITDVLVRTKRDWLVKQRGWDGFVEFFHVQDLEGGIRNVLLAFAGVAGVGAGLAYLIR

EC50 of mitochondrial depolarization, BH3 profiling, Bcl-2-dependent line [1]: > 100 µM
EC50 of mitochondrial depolarization, BH3 profiling, MDA-MB-231 cells [2]: > 100 µM
Binder: AELPPEFAAQLRKIGDKVYC [NoxaA BH3 peptide from murine Noxa, unlabeled]

EC50 of mitochondrial depolarization, BH3 profiling, Mcl-1/Myc 2640 cells [3]: 0.86 µM
EC50 of mitochondrial depolarization, BH3 profiling, Bcl-2-dependent line [1]: > 100 µM
EC50 of mitochondrial depolarization, BH3 profiling, MDA-MB-231 cells [2]: > 100 µM
Binder: RPEIWLTQHLQRLGDEINAYYAR [MS3 as used in BH3 profiling]

EC50 of mitochondrial depolarization, BH3 profiling, Mcl-1/Myc 2640 cells [3]: 0.07 µM
Binder: RPEIWMTQGLRRLGDEINAYYAR [MS1, unlabeled]

fold reduction in binding relative to Bim [4]: > 20 fold
fold reduction in binding relative to Bim [5]: > 20 fold
fold reduction in binding relative to Bim [6]: > 20 fold
fold reduction in binding relative to Bim [7]: 6 fold
Binder: RPEIWITQELRRIGDEFNAYYAR (Bim BH3 point mutant) [Bim_A2eT]

fold reduction in binding relative to Bim_A2eT [6]: 4 fold
Binder: RPEIWITQELRRLGDEFNAYYAR [Bim_A2eT_I3dL]

fold decrease in binding relative to Bim_A2eT [4]: 3 fold
fold decrease in binding relative to Bim_A2eT [7]: 6 fold
Binder: RPEIWITQELRRIGDEINAYYAR [Bim_A2eT_F4aI]

fold reduction in binding relative to Bim_A2eT [4]: ~4 fold
fold reduction in binding relative to Bim_A2eT [5]: ~4 fold
fold reduction in binding relative to Bim_A2eT [6]: ~4 fold
fold reduction in binding relative to Bim_A2eT [7]: ~4 fold
Binder: RPEIWMTQELRRIGDEFNAYYAR [Bim_A2eT_I2dM]
